These results are taken from patent US20180371066A1 (C2N DIAGNOSTICS, published 2018).

Experiment [1] has as its target T1, human tau (human, UniProt P10636 2-60).
T1 construct: also called soluble human tau; human tau protein
Nature of the experiment: competition ELISA on plate-coated human tau against biotinylated HJ8.5; IC50 normalised to chimeric HJ8.5; column C2N Run 2. In general terms: In an ELISA, binding on a coated surface is turned into a signal by an enzyme label.

In experiment [2] the target is T1, human tau. The experiment can be described thus: competition ELISA on plate-coated human tau against biotinylated HJ8.5; IC50 normalised to chimeric HJ8.5; column C2N Run 1.
For experiment [3], the target named is T1, human tau. Nature of the experiment: competition ELISA on plate-coated human tau against biotinylated HJ8.5; IC50 normalised to chimeric HJ8.5; column External.
For experiment [4], the target named is T2, recombinant human Tau-412 protein (human, UniProt P10636-7 1-412).
T2 construct: Analyte of the SPR study; also called human tau (1N4R, 412 amino acids)
Nature of the experiment: SPR Biacore T200, mAb captured on Protein A, Tau-412 analyte, 1-to-1 model, chip A11/1. How it is done: (§1) Kinetic data was obtained at a flow rate of 40 μL/min to minimize any potential mass transfer effects. Two repeats of the blank (no antigen) and the 2.5 nM concentration of the analyte were programmed into the kinetic run in order to check the stability of both the surface and analyte over the kinetic cycles. For the initial kinetic runs, 2-fold dilutions of Tau-412 from 40 nM to 0.156 nM were run. For kinetic analysis and on subsequent runs, an analyte range of 20 nM to 0.625 nM was selected. This range covered multiple analyte concentrations both above and below the reported KD.
(§2) The association phase was monitored for 500 seconds to allow some of the higher concentrations of analyte to reach steady state. In order to observe a sufficient signal decrease (>10%) during the dissociation phase of the kinetic cycle, dissociation was measured for 1200 seconds. As discussed in Section 5, the Fcs were allowed to stabilize for 600 seconds after each regeneration step. The signal from the reference channel Fc1 was subtracted from that of Fc2, Fc3 and Fc4.
(§3) The kinetic parameters for the interaction of Tau-412 with the 7 mAbs as measured using the Protein A capture system on the Biacore T200 are shown in Table F-2. To correct for differences in the capture level of the antibody between each binding cycle, a local Rₘₐₓ parameter was used in the 1-to-1 binding model. Kinetic analysis was performed in three independent runs using fresh preparations of Tau-412 and antibody. Run 1 and runs 2+3 used different vials of the antigen Tau-412; therefore the reported errors associated with the mean response probably represent variation in preparation of the analyte and differences in assay set-up and run. From run 1 to runs 2+3, the amount of antibody injected was adjusted to try to get closer to the target 300 RU capture levels.
In general terms: Surface plasmon resonance follows binding to a sensor surface in real time, without labels.

Experiment [5] addresses T2, recombinant human Tau-412 protein. Nature of the experiment: SPR Biacore T200, mAb captured on Protein A, Tau-412 analyte, 1-to-1 model, chip A11/2. How it is done:
as §1, §2, §3

Experiment [6] has the same target. Nature of the experiment: SPR Biacore T200, Protein A capture, mean of the VH3/VK3 runs. As to the method:
as §1, §2, §3

For experiment [7], the target named is T1, human tau. Nature of the experiment: competition ELISA on plate-coated human tau against biotinylated HJ8.5; IC50 normalised to chimeric HJ8.5 (reference row); column C2N Run 2.
Experiment [8] concerns the target T1, human tau. The experiment can be described thus: competition ELISA on plate-coated human tau against biotinylated HJ8.5; IC50 normalised to chimeric HJ8.5 (reference row); column C2N Run 1.
Experiment [9] concerns the target T2, recombinant human Tau-412 protein. The experiment can be described thus: SPR Biacore T200, mAb captured on Protein A, Tau-412 analyte, 1-to-1 model, chip A11/3. As to the method:
as §1, §2, §3

For experiment [10] the target is unchanged. The experiment can be described thus: SPR Biacore T200, Protein A capture, mean of the Chimeric runs. As to the method:
as §1, §2, §3

For experiment [11], the target named is T1, human tau. Nature of the experiment: competition ELISA on plate-coated human tau against biotinylated HJ8.5; IC50 normalised to chimeric HJ8.5 (reference row); column External.

T1 sequence (P10636 2-60 limits assumed): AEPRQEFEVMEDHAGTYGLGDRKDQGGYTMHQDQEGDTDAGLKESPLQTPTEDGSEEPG

B1: VH3/VK3 humanized anti-tau antibody (antibody, human IgG4 S228P, kappa)
heavy: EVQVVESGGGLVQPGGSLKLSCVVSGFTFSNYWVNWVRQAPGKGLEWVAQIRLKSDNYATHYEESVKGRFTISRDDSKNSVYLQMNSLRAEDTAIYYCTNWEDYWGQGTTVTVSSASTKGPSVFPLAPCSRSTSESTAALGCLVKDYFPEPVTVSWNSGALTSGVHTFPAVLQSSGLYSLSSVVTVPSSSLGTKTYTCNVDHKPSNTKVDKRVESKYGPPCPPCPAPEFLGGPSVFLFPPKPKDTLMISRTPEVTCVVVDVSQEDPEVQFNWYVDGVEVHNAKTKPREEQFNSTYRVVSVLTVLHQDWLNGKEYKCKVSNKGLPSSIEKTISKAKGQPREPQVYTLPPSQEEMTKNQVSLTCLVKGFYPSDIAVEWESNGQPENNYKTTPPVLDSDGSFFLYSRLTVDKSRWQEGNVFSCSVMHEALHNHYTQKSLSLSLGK
light: DIVLTQSPDSLAVSLGERATISCRASQSVSTSRYSYIHWYQQKPGQPPKLLIKYASNLESGVPSRFSGSGSGTDFTLTISSLQPEDFATYYCHHSWEIPLTFGQGTKLEIKRTVAAPSVFIFPPSDEQLKSGTASVVCLLNNFYPREAKVQWKVDNALQSGNSQESVTEQDSKDSTYSLSSTLTLSKADYEKHKVYACEVTHQGLSSPVTKSFNRGEC
notes: Humanized variant of HJ8.5
For the molecule B1, the “IC50 (Relative to Chimera)” value is 1.34 relative to Chimera with human tau [1], 0.84 relative to Chimera with human tau [2] and 0.93 relative to Chimera in the experiment with human tau [3]. The Kd (in general, the concentration at which binding is half-saturated) in [4] is 2.2 nM; in experiment [5], 1.65 nM; in experiment [6], 1.92 nM. Besides, the koff (as a rule, the rate constant with which the complex falls apart) in experiment [4] was 0.000559 s⁻¹; in experiment [5], 0.000454 s⁻¹; in experiment [6] it was 0.000507 s⁻¹. Also, the kon (usually the rate constant with which the complex forms) in experiment [4] was 254000 M⁻¹ s⁻¹; in experiment [5], 276000 M⁻¹ s⁻¹; in [6] it was 265000 M⁻¹ s⁻¹.

B2: chimeric HJ8.5 monoclonal antibody (antibody, V domains shown)
VH: EVKVEESGGGLVQPGGSMKLSCVVSGFTFSNYWVNWVRQSPEKGLEWVAQIRLKSDNYATHYEESVKGRFTISRDDSKSSVYLQMNNLRAEDSGIYYCTNWEDYWGQGTTLTVSS
VL: DIVLTQSPASLAVSLGQRATISCRASQSVSTSRYSYIHWYQQKPGQPPKLLIKYASNLESGVPARFSGSGSGTDFTLNIHPLEEEDAATYYCHHSWEIPLTFGAGTKLELK
notes: also called chimera; chimeric antibody
For B2, the “IC50 (Relative to Chimera)” value with human tau [7], in the experiment with human tau [8] and with human tau [11] was 1 relative to Chimera each time. For the same molecule, the Kd in experiment [9] turned out to be 1.94 nM; in [10], 1.99 nM; in [4] it was 2.23 nM; in experiment [5] it was 1.79 nM. The koff in [9] stood at 0.0014 s⁻¹; in experiment [10] it was 0.00143 s⁻¹; in [4], 0.0016 s⁻¹; in [5] it was 0.0013 s⁻¹. The kon in [9] stood at 723000 M⁻¹ s⁻¹; in [10] it was 721000 M⁻¹ s⁻¹; in experiment [4], 718000 M⁻¹ s⁻¹; in [5] it was 722000 M⁻¹ s⁻¹.
